Consider two molecules from patent US20130064834A1 (published 2013).

Assay [1] has as its target T1, his-tagged Syrian golden hamster (Mesocricetus auratus) PCSK9 (Syrian golden hamster (Mesocricetus …)).
T1 construct: also called maPCSK9-h; maPCSK9
T1 chain: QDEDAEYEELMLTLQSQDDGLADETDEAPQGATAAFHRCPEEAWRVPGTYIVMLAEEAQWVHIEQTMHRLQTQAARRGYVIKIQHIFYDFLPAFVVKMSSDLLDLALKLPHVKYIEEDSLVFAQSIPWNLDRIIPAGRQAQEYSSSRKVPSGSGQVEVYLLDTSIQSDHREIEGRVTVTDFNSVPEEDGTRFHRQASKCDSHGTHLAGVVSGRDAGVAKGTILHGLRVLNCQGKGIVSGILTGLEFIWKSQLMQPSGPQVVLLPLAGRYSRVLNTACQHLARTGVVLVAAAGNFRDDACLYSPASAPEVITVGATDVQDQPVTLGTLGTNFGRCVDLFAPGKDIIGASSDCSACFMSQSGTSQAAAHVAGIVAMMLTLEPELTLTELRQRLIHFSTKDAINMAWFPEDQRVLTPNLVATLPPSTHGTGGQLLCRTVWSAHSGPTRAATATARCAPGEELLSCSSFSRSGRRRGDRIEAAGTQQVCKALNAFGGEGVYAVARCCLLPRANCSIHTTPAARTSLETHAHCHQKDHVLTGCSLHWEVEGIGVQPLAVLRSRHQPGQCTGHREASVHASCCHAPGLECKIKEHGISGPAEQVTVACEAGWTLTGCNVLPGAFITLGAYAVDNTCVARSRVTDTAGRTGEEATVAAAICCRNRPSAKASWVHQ
In words: SPR, mAb amine-coupled, 37C, pH 7.4.
From the text: (§1) Briefly, mAbs were immobilized onto BIACORE™ CM5 sensor chips via amine coupling.

Assay [2] addresses T2, mouse PCSK9, myc-myc-his tagged (mouse, UniProt Q80W65 35-694).
T2 construct: also called mPCSK9-mmh; mPCSK9
In words: SPR, mAb amine-coupled, 37C, pH 7.4.
From the text: as §1

Assay [3] addresses T3, rat (Rattus norvegicus) PCSK9, myc-myc-his tagged (rat (Rattus norvegicus), UniProt P59996 31-691).
T3 construct: also called rPCSK9-mmh; rPCSK9
Nature of the assay: SPR, mAb amine-coupled, 37C, pH 7.4. Background: SPR reads the build-up and loss of mass on a sensor chip optically.
From the text: as §1

In assay [4] the target is T1, his-tagged Syrian golden hamster …. In words: SPR, mAb amine-coupled, 25C, pH 5.5.
From the text: as §1
Assay [5] addresses T2, mouse PCSK9, myc-myc-his tagged. Nature of the assay: SPR, mAb amine-coupled, 25C, pH 5.5.
Target sequence in this assay (Q80W65 35-694 limits assumed): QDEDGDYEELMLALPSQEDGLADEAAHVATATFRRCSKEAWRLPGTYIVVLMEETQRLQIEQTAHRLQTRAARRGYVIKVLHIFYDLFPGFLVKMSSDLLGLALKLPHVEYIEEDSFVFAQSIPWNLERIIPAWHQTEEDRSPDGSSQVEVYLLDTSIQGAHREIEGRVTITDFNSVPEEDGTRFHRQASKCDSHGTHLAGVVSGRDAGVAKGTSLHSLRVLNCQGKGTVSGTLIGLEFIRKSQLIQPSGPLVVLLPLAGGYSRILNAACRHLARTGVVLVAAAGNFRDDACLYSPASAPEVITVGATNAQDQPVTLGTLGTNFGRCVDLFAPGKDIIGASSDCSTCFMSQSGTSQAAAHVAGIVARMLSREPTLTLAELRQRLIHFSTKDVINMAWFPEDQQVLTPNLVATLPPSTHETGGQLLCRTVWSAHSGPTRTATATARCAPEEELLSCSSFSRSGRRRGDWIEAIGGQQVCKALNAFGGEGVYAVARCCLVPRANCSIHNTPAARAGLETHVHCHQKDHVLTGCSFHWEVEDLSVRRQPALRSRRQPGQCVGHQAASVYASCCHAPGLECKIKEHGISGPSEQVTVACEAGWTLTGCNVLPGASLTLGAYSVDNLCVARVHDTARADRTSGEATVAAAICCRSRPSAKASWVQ
From the text: as §1
Assay [6] deals with T3, rat (Rattus norvegicus) PCSK9, …. In words: SPR, mAb amine-coupled, 25C, pH 5.5.
From the text: as §1
The target in the next assay is T4, hPCSK9(D238R) (human, UniProt Q8NBP7 31-692).
T4 construct: mmh-tagged variant hPCSK9
In words: SPR, mAb captured, 25C.

Assay [7] concerns the target T2, mouse PCSK9, myc-myc-his tagged. In words: SPR, mAb amine-coupled, 37C, pH 5.5.
From the text: as §1
The target in assay [8] is T3, rat (Rattus norvegicus) PCSK9, …. In words: SPR, mAb amine-coupled, 37C, pH 5.5.
From the text: as §1
Assay [9] has as its target T5, tagged rhesus monkey (Macaca mulata) PCSK9 (rhesus monkey (Macaca mulata), UniProt A8T666 31-692).
T5 construct: also called mmPCSK9-mmh; mmPCSK9
In words: SPR, mAb captured on anti-hFc, 25C.

In assay [10] the target is T1, his-tagged Syrian golden hamster …. Nature of the assay: SPR, mAb captured on anti-hFc, 25C.
The target of the next assay is T6, hPCSK9(D374Y)-mmh (human, UniProt Q8NBP7 31-692).
T6 construct: also called hPCSK(D374Y)-mmh
Nature of the assay: SPR, mAb captured on anti-hFc, 25C.

For assay [11], the target named is T7, Human PCSK9-myc-myc-his (human, UniProt Q8NBP7 31-692).
T7 construct: also called hPCSK9-mmh; hPCSK9
In words: SPR, mAb captured on anti-hFc, 25C.

Assay [12] has as its target T2, mouse PCSK9, myc-myc-his tagged. Nature of the assay: SPR, mAb captured on anti-hFc, 25C.
Target sequence in this assay (Q80W65 35-694 limits assumed): as above
The target of assay [13] is T3, rat (Rattus norvegicus) PCSK9, …. In words: SPR, mAb captured on anti-hFc, 25C.
In assay [14] the target is T7, Human PCSK9-myc-myc-his. Nature of the assay: SPR, mAb captured, 25C.
Method: Each selected antibody was captured at a flowrate of 2 μl/min for 6 min on a goat anti-human IgG polyclonal antibody surface created through direct chemical coupling to a BIACORE™ chip to form a captured antibody surface.
For a further assay, the target named is T8, hPCSK9(E366K) (human, UniProt Q8NBP7 31-692).
T8 construct: mmh-tagged variant hPCSK9
Nature of the assay: SPR, mAb captured, 25C.

T3 sequence (P59996 31-691 limits assumed): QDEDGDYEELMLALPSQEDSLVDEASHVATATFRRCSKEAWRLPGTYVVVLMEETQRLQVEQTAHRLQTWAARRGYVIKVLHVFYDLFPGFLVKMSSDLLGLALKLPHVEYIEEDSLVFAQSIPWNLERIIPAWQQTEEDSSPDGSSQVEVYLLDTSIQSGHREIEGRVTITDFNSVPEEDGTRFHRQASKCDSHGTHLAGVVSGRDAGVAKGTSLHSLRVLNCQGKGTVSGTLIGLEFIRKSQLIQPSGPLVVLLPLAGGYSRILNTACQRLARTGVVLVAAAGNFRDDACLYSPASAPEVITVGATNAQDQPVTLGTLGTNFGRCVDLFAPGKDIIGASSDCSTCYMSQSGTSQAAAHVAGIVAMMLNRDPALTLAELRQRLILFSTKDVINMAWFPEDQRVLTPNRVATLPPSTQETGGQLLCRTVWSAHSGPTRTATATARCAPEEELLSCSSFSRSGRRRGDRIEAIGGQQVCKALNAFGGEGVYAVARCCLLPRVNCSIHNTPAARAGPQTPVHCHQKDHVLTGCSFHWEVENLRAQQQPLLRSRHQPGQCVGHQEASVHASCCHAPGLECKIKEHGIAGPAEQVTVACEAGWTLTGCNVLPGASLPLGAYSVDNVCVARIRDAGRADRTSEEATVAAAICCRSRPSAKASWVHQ
T5 sequence (A8T666 31-692 limits assumed): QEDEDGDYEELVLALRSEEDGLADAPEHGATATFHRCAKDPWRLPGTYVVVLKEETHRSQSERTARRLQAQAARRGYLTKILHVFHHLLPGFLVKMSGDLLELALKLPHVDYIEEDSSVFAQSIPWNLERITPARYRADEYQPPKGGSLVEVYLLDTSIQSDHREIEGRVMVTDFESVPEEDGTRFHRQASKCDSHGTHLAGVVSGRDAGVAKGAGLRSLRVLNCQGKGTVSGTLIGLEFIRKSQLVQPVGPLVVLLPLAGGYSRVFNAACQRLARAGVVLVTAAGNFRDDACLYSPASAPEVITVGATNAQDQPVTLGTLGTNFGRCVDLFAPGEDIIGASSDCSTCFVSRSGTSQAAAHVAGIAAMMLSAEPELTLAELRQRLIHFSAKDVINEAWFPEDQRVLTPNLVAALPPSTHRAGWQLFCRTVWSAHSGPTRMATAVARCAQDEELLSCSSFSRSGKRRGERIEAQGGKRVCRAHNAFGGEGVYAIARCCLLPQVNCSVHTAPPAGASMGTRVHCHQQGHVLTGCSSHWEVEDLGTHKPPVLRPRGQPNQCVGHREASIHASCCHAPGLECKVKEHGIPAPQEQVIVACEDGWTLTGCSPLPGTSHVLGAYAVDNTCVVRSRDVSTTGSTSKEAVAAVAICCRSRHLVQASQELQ
From the text for hPCSK9(D238R): (§2) Each selected antibody was captured on a F(ab′)2 anti-hIgG surface created through direct chemical coupling to a BIACORE™ chip to form a captured antibody surface.
From the text for hPCSK9(E366K): as §2

B1: H1H316P (antibody, V domains shown)
VH: EVQLVESGGGLVQPGGSLRLSCAASGFTFNNYAMNWVRQAPGKGLDWVSTISGSGGTTNYADSVKGRFIISRDSSKHTLYLQMNSLRAEDTAVYYCAKDSNWGNFDLWGRGTLVTVSS
VL: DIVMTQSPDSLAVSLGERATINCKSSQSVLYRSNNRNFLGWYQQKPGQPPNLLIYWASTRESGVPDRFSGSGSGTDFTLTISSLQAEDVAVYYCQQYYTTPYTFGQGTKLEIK
notes: Fully human mAb made in CHO cells; also called mAb316P
A word on the Kd: it is the concentration at which binding is half-saturated. Consider B1, for which the Kd in assay [1] is 21.7 nM; in assay [2], 12.2 nM; in assay [3] it was 55.1 nM; in [4], 0.087 nM; in assay [5], 0.063 nM; in assay [6], 0.349 nM. In addition, the Kd in assay [7] amounted to 13.6 nM; in [8], 0.399 nM; in assay [9], 0.55 nM; in assay [10], 6.81 nM; with hPCSK9(D374Y)-mmh it was 1.69 nM; in the assay with Human PCSK9-myc-myc-his [11], 0.58 nM. Further, the Kd in [12] was determined as 2.3 nM; in assay [13], 14.5 nM; with Human PCSK9-myc-myc-his [14] it was 0.377 nM. Further, the T1/2 in assay [1] was 2 min; in assay [2], 3 min; in [3] it was 2 min; in assay [4] it was 8 min; in [5], 11 min; in [6], 5 min. The T1/2 in assay [7] came out at 3 min; in [8] it was 1 min; in [9], 92 min; in assay [10], 5 min; in the assay with hPCSK9(D374Y)-mmh, 15 min; with Human PCSK9-myc-myc-his [11] it was 36 min. For the same molecule, the T1/2 in assay [12] came out at 11 min; in assay [13], 2 min; in the assay with Human PCSK9-myc-myc-his [14], 42 min. In addition, the “fold reduction of binding affinity against wildtype hPCSK9” value with hPCSK9(D238R) was above 400 fold. The “fold shortening of T1/2 against wildtype hPCSK9” value in the assay with hPCSK9(D238R) is around 30 fold.

B2: H1M300N (antibody, V domains shown)
VH: EMQLVESGGGLVQPGGSLRLSCAASGFTFSSHWMKWVRQAPGKGLEWVANINQDGSEKYYVDSVKGRFTISRDNAKNSLFLQMNSLRAEDTAVYYCARDIVLMVYDMDYYYYGMDVWGQGTTVTVSS
VL: not shown
notes: Fully human version made in CHO cells
Take B2: the “fold reduction of binding against wildtype hPCSK9” value with hPCSK9(E366K) is around 50 fold.
